Source: patent US20140011734A1 (Sanofi, published 2014)
Starred links: 1 amine or outer side, 2 acyl side, 3 side chain; linkers in the order of their positions; H or OH if unused. Non-standard residues stand in square brackets, D forms with d. NH(CH2)9CO = O=C(CCCCCCCCCN[*:1])[*:2]; tBuAla = CC(C)(C)C[C@H](N)C(=O)O; Cha = N[C@@H](CC1CCCCC1)C(=O)O; Chg = N[C@H](C(=O)O)C1CCCCC1; Ac6c = NC1(C(=O)O)CCCCC1; Orn = NCCC[C@H](N)C(=O)O; Dab = NCC[C@H](N)C(=O)O; Nva = CCC[C@H](N)C(=O)O; Dap = NC[C@H](N)C(=O)O; Ac3c = NC1(C(=O)O)CC1; Aib = CC(C)(N)C(=O)O; Ahp = NCCCCCCC(=O)O; Ava = NCCCCC(=O)O; GABA = NCCCC(=O)O

What was measured:
[1] = target: T1, blood platelet receptor glycoprotein Ib-IX-V complex (GPIb) (human, UniProt P07359 17-652; P13224 26-206; P14770 17-177; P40197 17-560); assay: inhibition of static adhesion of human platelets to coated vWF-A1; grade B = IC50 between 1 µM and 10 µM
T1 construct: whole, on cells; also called GPIb complex; GPIb receptor
T1 sequence (P07359 17-652, chain 1 of 4): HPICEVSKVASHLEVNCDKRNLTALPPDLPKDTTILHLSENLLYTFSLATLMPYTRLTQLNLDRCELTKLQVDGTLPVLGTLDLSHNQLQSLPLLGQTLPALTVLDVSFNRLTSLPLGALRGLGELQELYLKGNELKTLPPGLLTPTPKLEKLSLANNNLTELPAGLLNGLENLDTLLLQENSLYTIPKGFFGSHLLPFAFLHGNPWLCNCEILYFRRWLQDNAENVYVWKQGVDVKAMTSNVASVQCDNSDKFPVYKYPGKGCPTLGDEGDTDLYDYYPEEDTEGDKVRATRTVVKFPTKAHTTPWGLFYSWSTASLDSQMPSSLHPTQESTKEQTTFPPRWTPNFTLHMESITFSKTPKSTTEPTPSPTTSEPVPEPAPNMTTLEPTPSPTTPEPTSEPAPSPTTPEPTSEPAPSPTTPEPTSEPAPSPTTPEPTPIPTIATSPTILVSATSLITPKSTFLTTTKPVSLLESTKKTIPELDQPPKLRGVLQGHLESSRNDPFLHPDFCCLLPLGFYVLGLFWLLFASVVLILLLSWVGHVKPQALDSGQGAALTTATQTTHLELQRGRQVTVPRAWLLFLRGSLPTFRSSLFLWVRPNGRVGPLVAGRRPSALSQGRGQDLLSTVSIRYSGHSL
T1 sequence (P13224 26-206, chain 2 of 4): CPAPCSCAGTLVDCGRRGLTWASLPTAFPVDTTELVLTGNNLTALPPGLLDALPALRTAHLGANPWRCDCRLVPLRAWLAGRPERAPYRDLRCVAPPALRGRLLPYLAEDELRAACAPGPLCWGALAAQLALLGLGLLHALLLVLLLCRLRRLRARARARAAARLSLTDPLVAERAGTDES
T1 sequence (P14770 17-177, chain 3 of 4): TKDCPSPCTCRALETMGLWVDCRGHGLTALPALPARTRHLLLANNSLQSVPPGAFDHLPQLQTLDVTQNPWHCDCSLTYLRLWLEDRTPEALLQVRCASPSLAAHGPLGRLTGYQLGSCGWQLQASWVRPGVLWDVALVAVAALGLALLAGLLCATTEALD
T1 sequence (P40197 17-560, chain 4 of 4): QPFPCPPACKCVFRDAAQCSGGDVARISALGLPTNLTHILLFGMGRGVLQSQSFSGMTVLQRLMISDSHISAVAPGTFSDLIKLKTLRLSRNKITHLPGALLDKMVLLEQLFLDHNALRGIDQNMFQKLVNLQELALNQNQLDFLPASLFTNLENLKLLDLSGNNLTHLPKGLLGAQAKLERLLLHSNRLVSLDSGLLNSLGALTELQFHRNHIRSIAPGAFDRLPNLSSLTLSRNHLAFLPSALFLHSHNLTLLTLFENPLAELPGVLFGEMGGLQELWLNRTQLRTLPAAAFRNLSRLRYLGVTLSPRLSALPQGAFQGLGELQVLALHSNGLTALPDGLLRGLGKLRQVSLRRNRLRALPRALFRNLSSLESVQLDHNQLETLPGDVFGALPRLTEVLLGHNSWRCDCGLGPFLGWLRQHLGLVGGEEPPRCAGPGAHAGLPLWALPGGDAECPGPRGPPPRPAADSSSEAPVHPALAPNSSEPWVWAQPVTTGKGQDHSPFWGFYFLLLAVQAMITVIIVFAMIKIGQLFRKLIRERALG
Procedure: (§1) Platelet rich plasma was carefully transferred again to fresh containers, PGE1 (0.5 μg/ml, Sigma) was added and the suspension was allowed to rest for 5 min. This was followed by another centrifugation step for 15 min at 360 g. The supernatant was discarded and the cell pellets were carefully resuspended in tyrode buffer (NaCl, 137 mM (Sigma S-3014); KCl, 2.7 mM (Sigma P-9541); NaHCO₃,12 mM (Riedel deHaen 31437); NaH₂PO₄×2H₂O, 0.36 mM (Merck 6345); MgCl₂×6 H₂O, 1 mM (Sigma M-2670); Hepes, 10 mM (Sigma H-1016); glucose, 5.6 mM (Merck 8342); BSA, 0.1% (Sigma A7906)), and PGE1 (0.25 μg/ml) was added. After 5 min of resting the suspension was spun down for 15 min at 300 g. The supernatant was discarded and the pellets were carefully resuspended in TBS buffer (Tris-HCl, 50 mM (Fluka 93371); NaCl, 120 mM (Sigma S-3014); KCl, 2.7 mM (Sigma P-9541); CaCl₂, 0.05 mM (Sigma C-3306); MgCl₂×6 H₂O, 2 mM (Sigma M-2670); BSA, 0.1% (Sigma A7906); pH 7.4). The platelet count was adjusted to 2×10⁵ cells/μl, and the suspensions from individual donors were pooled at this stage. The platelets were allowed to rest for 30 min at room temperature before calcein AM (2.5 μM per 2×10⁵ cells/pi (Molecular Probes C-3099)) was added. This was followed by 15 min incubation in the dark. Cells were diluted to 5×10⁴ cells/μl and ReoPro (3 μg/ml (Centocor B. V., Leiden, N L)) was added, followed by a 10 min incubation period in the dark before adding the platelets to the assay plates.
(§2) 96 well plates (Greiner hb, black, clear bottom, F, 655097) were coated with human recombinant vWF-A1 domain (1.5 μg/well, AA 475-706, expressed in E. coli) in Tris buffer (pH 7.4; Tris-HCl, 25 mM; NaCl, 150 mM) and incubated for 1 h at room temperature. After washing the wells 3× with TBS, blocking buffer (TBS with 5% BSA) was added followed by an incubation for 1 h. The wells were washed again 3× with TBS before 200 μl TBS were added to each well, preventing them from drying out. TBS was flicked out and serial dilutions of the test compound were added. The washed and calcein AM labeled thrombocytes were added to the wells (2.5×10⁶ cells/well). Following an adhesion period of 1.5 h in the dark the wells were washed 3× with TBS. Measurement of fluorescence per well was performed in a SpectraMax M5 reader (Molecular Devices). From the raw data % inhibition and IC₅₀ values were calculated.

[2] = target: T1, blood platelet receptor glycoprotein …; assay: inhibition of static adhesion of human platelets to coated vWF-A1; grade C = IC50 lower than 1 µM
Procedure: as §1, §2

IC50 [1] [nM] | IC50 [2] [nM] | Binder
1000 to 10000 | – | cyclo(LHNL[GABA][Aib]TERMA) (SMILES CSCC[C@@H]1NC(=O)[C@H](CCCNC(=N)N)NC(=O)[C@H](CCC(=O)O)NC(=O)[C@H]([C@@H](C)O)NC(=O)C(C)(C)NC(=O)CCCNC(=O)[C@H](CC(C)C)NC(=O)[C@H](CC(N)=O)NC(=O)[C@H](Cc2c[nH]cn2)NC(=O)[C@H](CC(C)C)NC(=O)[C@H](C)NC1=O) [Cyclo[Leu-His-Asn-Leu-NH-(CH2)3-CO-Aib-Thr-Glu-Arg-Met-Ala]]
1000 to 10000 | – | cyclo(LHNL[NH(CH2)9CO]TERMA) (SMILES CSCC[C@@H]1NC(=O)[C@H](CCCNC(=N)N)NC(=O)[C@H](CCC(=O)O)NC(=O)[C@H]([C@@H](C)O)NC(=O)CCCCCCCCCNC(=O)[C@H](CC(C)C)NC(=O)[C@H](CC(N)=O)NC(=O)[C@H](Cc2c[nH]cn2)NC(=O)[C@H](CC(C)C)NC(=O)[C@H](C)NC1=O) [Cyclo[Leu-His-Asn-Leu-NH-(CH2)9-CO-Thr-Glu-Arg-Met-Ala]]
– | < 1000 | cyclo(LHNL[Ahp]TE[Orn]MA) (SMILES CSCC[C@@H]1NC(=O)[C@H](CCCN)NC(=O)[C@H](CCC(=O)O)NC(=O)[C@H]([C@@H](C)O)NC(=O)CCCCCCNC(=O)[C@H](CC(C)C)NC(=O)[C@H](CC(N)=O)NC(=O)[C@H](Cc2c[nH]cn2)NC(=O)[C@H](CC(C)C)NC(=O)[C@H](C)NC1=O) [Cyclo[Leu-His-Asn-Leu-NH-(CH2)6-CO-Thr-Glu-Orn-Met-Ala]]
– | < 1000 | cyclo(LHNL[Ahp]QERMA) (SMILES CSCC[C@@H]1NC(=O)[C@H](CCCNC(=N)N)NC(=O)[C@H](CCC(=O)O)NC(=O)[C@H](CCC(N)=O)NC(=O)CCCCCCNC(=O)[C@H](CC(C)C)NC(=O)[C@H](CC(N)=O)NC(=O)[C@H](Cc2c[nH]cn2)NC(=O)[C@H](CC(C)C)NC(=O)[C@H](C)NC1=O) [Cyclo[Leu-His-Asn-Leu-NH-(CH2)6-CO-Gln-Glu-Arg-Met-Ala]]
– | < 1000 | cyclo(LHNL[Ahp]TERLA) (SMILES CC(C)C[C@@H]1NC(=O)[C@H](C)NC(=O)[C@H](CC(C)C)NC(=O)[C@H](CCCNC(=N)N)NC(=O)[C@H](CCC(=O)O)NC(=O)[C@H]([C@@H](C)O)NC(=O)CCCCCCNC(=O)[C@H](CC(C)C)NC(=O)[C@H](CC(N)=O)NC(=O)[C@H](Cc2c[nH]cn2)NC1=O) [Cyclo[Leu-His-Asn-Leu-NH-(CH2)6-CO-Thr-Glu-Arg-Leu-Ala]]
– | < 1000 | cyclo([Cha]HNL[Ahp]TERMA) (SMILES CSCC[C@@H]1NC(=O)[C@H](CCCNC(=N)N)NC(=O)[C@H](CCC(=O)O)NC(=O)[C@H]([C@@H](C)O)NC(=O)CCCCCCNC(=O)[C@H](CC(C)C)NC(=O)[C@H](CC(N)=O)NC(=O)[C@H](Cc2c[nH]cn2)NC(=O)[C@H](CC2CCCCC2)NC(=O)[C@H](C)NC1=O) [Cyclo[Cha-His-Asn-Leu-NH-(CH2)6-CO-Thr-Glu-Arg-Met-Ala]]
– | < 1000 | cyclo([Nva]HNL[Ahp]TERMA) (SMILES CCC[C@@H]1NC(=O)[C@H](C)NC(=O)[C@H](CCSC)NC(=O)[C@H](CCCNC(=N)N)NC(=O)[C@H](CCC(=O)O)NC(=O)[C@H]([C@@H](C)O)NC(=O)CCCCCCNC(=O)[C@H](CC(C)C)NC(=O)[C@H](CC(N)=O)NC(=O)[C@H](Cc2c[nH]cn2)NC1=O) [Cyclo[Nva-His-Asn-Leu-NH-(CH2)6-CO-Thr-Glu-Arg-Met-Ala]]
– | < 1000 | cyclo(LHNL[Ahp][Dab]ERMA) (SMILES CSCC[C@@H]1NC(=O)[C@H](CCCNC(=N)N)NC(=O)[C@H](CCC(=O)O)NC(=O)[C@H](CCN)NC(=O)CCCCCCNC(=O)[C@H](CC(C)C)NC(=O)[C@H](CC(N)=O)NC(=O)[C@H](Cc2c[nH]cn2)NC(=O)[C@H](CC(C)C)NC(=O)[C@H](C)NC1=O) [Cyclo[Leu-His-Asn-Leu-NH-(CH2)6-CO-Dbu-Glu-Arg-Met-Ala]]
1000 to 10000 | – | cyclo(LHNLG[Ava]TERMA) (SMILES CSCC[C@@H]1NC(=O)[C@H](CCCNC(=N)N)NC(=O)[C@H](CCC(=O)O)NC(=O)[C@H]([C@@H](C)O)NC(=O)CCCCNC(=O)CNC(=O)[C@H](CC(C)C)NC(=O)[C@H](CC(N)=O)NC(=O)[C@H](Cc2c[nH]cn2)NC(=O)[C@H](CC(C)C)NC(=O)[C@H](C)NC1=O) [Cyclo[Leu-His-Asn-Leu-Gly-NH-(CH2)4-CO-Thr-Glu-Arg-Met-Ala]]
– | < 1000 | cyclo(LHNL[Ahp]TER[Cha]A) (SMILES CC(C)C[C@@H]1NC(=O)[C@H](C)NC(=O)[C@H](CC2CCCCC2)NC(=O)[C@H](CCCNC(=N)N)NC(=O)[C@H](CCC(=O)O)NC(=O)[C@H]([C@@H](C)O)NC(=O)CCCCCCNC(=O)[C@H](CC(C)C)NC(=O)[C@H](CC(N)=O)NC(=O)[C@H](Cc2c[nH]cn2)NC1=O) [Cyclo[Leu-His-Asn-Leu-NH-(CH2)6-CO-Thr-Glu-Arg-Cha-Ala]]

The remaining lines, values behind:

Binder | IC50 [1] [nM] | IC50 [2] [nM]
cyclo(LHNL[Ahp]NERMA) (SMILES CSCC[C@@H]1NC(=O)[C@H](CCCNC(=N)N)NC(=O)[C@H](CCC(=O)O)NC(=O)[C@H](CC(N)=O)NC(=O)CCCCCCNC(=O)[C@H](CC(C)C)NC(=O)[C@H](CC(N)=O)NC(=O)[C@H](Cc2c[nH]cn2)NC(=O)[C@H](CC(C)C)NC(=O)[C@H](C)NC1=O) [Cyclo[Leu-His-Asn-Leu-NH-(CH2)6-CO-Asn-Glu-Arg-Met-Ala]] | – | < 1000
cyclo(LHNL[Ahp]TERQA) (SMILES CC(C)C[C@@H]1NC(=O)[C@H](C)NC(=O)[C@H](CCC(N)=O)NC(=O)[C@H](CCCNC(=N)N)NC(=O)[C@H](CCC(=O)O)NC(=O)[C@H]([C@@H](C)O)NC(=O)CCCCCCNC(=O)[C@H](CC(C)C)NC(=O)[C@H](CC(N)=O)NC(=O)[C@H](Cc2c[nH]cn2)NC1=O) [Cyclo[Leu-His-Asn-Leu-NH-(CH2)6-CO-Thr-Glu-Arg-Gln-Ala]] | – | < 1000
cyclo(LHNL[Ahp]TERAA) (SMILES CC(C)C[C@@H]1NC(=O)[C@H](C)NC(=O)[C@H](C)NC(=O)[C@H](CCCNC(=N)N)NC(=O)[C@H](CCC(=O)O)NC(=O)[C@H]([C@@H](C)O)NC(=O)CCCCCCNC(=O)[C@H](CC(C)C)NC(=O)[C@H](CC(N)=O)NC(=O)[C@H](Cc2c[nH]cn2)NC1=O) [Cyclo[Leu-His-Asn-Leu-NH-(CH2)6-CO-Thr-Glu-Arg-Ala-Ala]] | – | < 1000
cyclo(LHNL[GABA][Ac3c]TERMA) (SMILES CSCC[C@@H]1NC(=O)[C@H](CCCNC(=N)N)NC(=O)[C@H](CCC(=O)O)NC(=O)[C@H]([C@@H](C)O)NC(=O)C2(CC2)NC(=O)CCCNC(=O)[C@H](CC(C)C)NC(=O)[C@H](CC(N)=O)NC(=O)[C@H](Cc2c[nH]cn2)NC(=O)[C@H](CC(C)C)NC(=O)[C@H](C)NC1=O) [Cyclo[Leu-His-Asn-Leu-NH-(CH2)3-CO-Ac3-Thr-Glu-Arg-Met-Ala]] | 1000 to 10000 | –
cyclo(LHNL[Ahp]TERM[Dap]) (SMILES CSCC[C@@H]1NC(=O)[C@H](CCCNC(=N)N)NC(=O)[C@H](CCC(=O)O)NC(=O)[C@H]([C@@H](C)O)NC(=O)CCCCCCNC(=O)[C@H](CC(C)C)NC(=O)[C@H](CC(N)=O)NC(=O)[C@H](Cc2c[nH]cn2)NC(=O)[C@H](CC(C)C)NC(=O)[C@H](CN)NC1=O) [Cyclo[Leu-His-Asn-Leu-NH-(CH2)6-CO-Thr-Glu-Arg-Met-Dpr]] | – | < 1000
cyclo([tBuAla]HNL[Ahp]TERMA) [Cyclo[Npg-His-Asn-Leu-NH-(CH2)6-CO-Thr-Glu-Arg-Met-Ala]] | – | < 1000
cyclo([Ac6c]HNL[Ahp]TERMA) [Cyclo[Ac6-His-Asn-Leu-NH-(CH2)6-CO-Thr-Glu-Arg-Met-Ala]] | 1000 to 10000 | –
cyclo(LHNL[Dap][GABA]TERMA) (SMILES CSCC[C@@H]1NC(=O)[C@H](CCCNC(=N)N)NC(=O)[C@H](CCC(=O)O)NC(=O)[C@H]([C@@H](C)O)NC(=O)CCCNC(=O)[C@H](CN)NC(=O)[C@H](CC(C)C)NC(=O)[C@H](CC(N)=O)NC(=O)[C@H](Cc2c[nH]cn2)NC(=O)[C@H](CC(C)C)NC(=O)[C@H](C)NC1=O) [Cyclo[Leu-His-Asn-Leu-Dpr-NH-(CH2)3-CO-Thr-Glu-Arg-Met-Ala]] | 1000 to 10000 | –
cyclo(LHNL[Ahp]TER[Chg]A) (SMILES CC(C)C[C@@H]1NC(=O)[C@H](C)NC(=O)[C@H](C2CCCCC2)NC(=O)[C@H](CCCNC(=N)N)NC(=O)[C@H](CCC(=O)O)NC(=O)[C@H]([C@@H](C)O)NC(=O)CCCCCCNC(=O)[C@H](CC(C)C)NC(=O)[C@H](CC(N)=O)NC(=O)[C@H](Cc2c[nH]cn2)NC1=O) [Cyclo[Leu-His-Asn-Leu-NH-(CH2)6-CO-Thr-Glu-Arg-Chg-Ala]] | 1000 to 10000 | –
